Experimental data reported in paper PMC9169696 (ACS applied materials & interfaces, 2021).
Square brackets hold non-standard residues; d marks the D form. Ends that are not written are not given here.

B1: fluorescein-labeled Fet-A (natural protein, bovine, UniProt P12763 19-359, looked up)
chain: IPLDPVAGYKEPACDDPDTEQAALAAVDYINKHLPRGYKHTLNQIDSVKVWPRRPTGEVYDIEIDTLETTCHVLDPTPLANCSVRQQTQHAVEGDCDIHVLKQDGQFSVLFTKCDSSPDSAEDVRKLCPDCPLLAPLNDSRVVHAVEVALATFNAESNGSYLQLVEISRAQFVPLPVSVSVEFAVAATDCIAKEVVDPTKCNLLAEKQYGFCKGSVIQKALGGEDVRVTCTLFQTQPVIPQPQPDGAEAEAPSAVPDAAGPTPSAAGPPVASVVVGPSVVAVPLPLHRAHYDLRHTFSGVASVESSSGEAFHVGKTPIVGQPSIPGGPVRLCPGRIRYFKI
modifications: fluorescein (from NHS-fluorescein; sites not stated)
B2: fluorescein-labeled VN (natural protein, human, UniProt P04004 20-478, looked up)
chain: DQESCKGRCTEGFNVDKKCQCDELCSYYQSCCTDYTAECKPQVTRGDVFTMPEDEYTVYDDGEEKNNATVHEQVGGPSLTSDLQAQSKGNPEQTPVLKPEEEAPAPEVGASKPEGIDSRPETLHPGRPQPPAEEELCSGKPFDAFTDLKNGSLFAFRGQYCYELDEKAVRPGYPKLIRDVWGIEGPIDAAFTRINCQGKTYLFKGSQYWRFEDGVLDPDYPRNISDGFDGIPDNVDAALALPAHSYSGRERVYFFKGKQYWEYQFQHQPSQEECEGSSLSAVFEHFAMMQRDSWEDIFELLFWGRTSAGTRQPQFISRDWHGVPGQVDAAMAGRIYISGMAPRPSLAKKQRFRHRNRKGYRSQRGHSRGRNQNSRRPSRATWLSLFSSEESNLGANNYDDYRMDWLVPATCEPIQSVFFFSGDKYYRVNLRTRRVDTVDPPYPRSIAQYWLGCPAPGHL
modifications: fluorescein (from NHS-fluorescein; sites not stated)
B3: HLT2 peptide gel (peptide)
peptide: VLTKVKTKV[code p]PTKVEVKVLV-NH2

Legend:
HLT2 peptide gel = biological target: B3; test: depletion from the supernatant
[1] = biological target: BSA fluorescein isothiocyanate conjugate (bovine, UniProt P02769 25-607, fluorescein isothiocyanate conjugate (sites not given)); test: light absorption and fluorescence imaging of the gel
BSA fluorescein isothiocyanate conjugate, sequence (P02769 25-607): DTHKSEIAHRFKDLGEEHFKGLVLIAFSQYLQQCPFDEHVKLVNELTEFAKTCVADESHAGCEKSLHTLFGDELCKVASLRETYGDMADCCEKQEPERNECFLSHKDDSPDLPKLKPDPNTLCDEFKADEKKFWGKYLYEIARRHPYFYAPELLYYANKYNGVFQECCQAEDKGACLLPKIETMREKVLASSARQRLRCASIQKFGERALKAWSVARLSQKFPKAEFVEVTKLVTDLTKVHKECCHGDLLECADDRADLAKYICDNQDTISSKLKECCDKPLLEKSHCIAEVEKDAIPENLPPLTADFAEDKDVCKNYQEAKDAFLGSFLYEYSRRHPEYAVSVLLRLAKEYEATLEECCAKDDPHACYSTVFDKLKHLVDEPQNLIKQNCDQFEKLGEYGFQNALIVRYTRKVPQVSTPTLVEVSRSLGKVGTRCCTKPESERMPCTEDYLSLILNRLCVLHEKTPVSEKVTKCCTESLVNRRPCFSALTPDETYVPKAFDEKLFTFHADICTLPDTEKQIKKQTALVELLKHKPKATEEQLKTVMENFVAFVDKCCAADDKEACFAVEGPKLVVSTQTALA

bovine serum albumin = bovine serum albumin (bovine, UniProt P02769 25-607); test: affinity purification with mass spectrometry
bovine serum albumin, sequence (P02769 25-607): as above

concentration adsorbed with respect to total gel volume (HLT2 peptide gel) [mg/mL] | percent of the added protein adsorbed (HLT2 peptide gel) [%] | binding result [1] | binding result (bovine serum albumin) | Binder
6.8 | 85 |  |  | B1
0.1 | 87 |  |  | B2
 |  | binds | binds | B3
